According to IntAct's records for PubMed 34948388:

B1: Multifunctional methyltransferase subunit TRM112-like protein (Homo sapiens), Q9UI30 (parent)
chain: MKLLTHNLLSSHVRGVGSRGFPLRLQATEVRICPVEFNPNFVARMIPKVEWSAFLEAADNLRLIQVPKGPVEGYEENEEFLRTMHHLLLEVEVIEGTLQCPESGRMFPISRGIPNMLLSEEETES
partner: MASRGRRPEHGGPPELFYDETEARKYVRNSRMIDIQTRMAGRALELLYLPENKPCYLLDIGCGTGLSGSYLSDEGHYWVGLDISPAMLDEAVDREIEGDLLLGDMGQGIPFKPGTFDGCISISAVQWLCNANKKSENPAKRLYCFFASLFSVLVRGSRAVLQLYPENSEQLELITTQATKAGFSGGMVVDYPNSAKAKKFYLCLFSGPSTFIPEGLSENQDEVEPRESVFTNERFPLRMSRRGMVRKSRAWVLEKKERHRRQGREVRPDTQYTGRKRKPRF
B2: Multifunctional methyltransferase subunit TRM112-like protein (Homo sapiens), Q9UI30 (parent)
chain: B1 chain
partner: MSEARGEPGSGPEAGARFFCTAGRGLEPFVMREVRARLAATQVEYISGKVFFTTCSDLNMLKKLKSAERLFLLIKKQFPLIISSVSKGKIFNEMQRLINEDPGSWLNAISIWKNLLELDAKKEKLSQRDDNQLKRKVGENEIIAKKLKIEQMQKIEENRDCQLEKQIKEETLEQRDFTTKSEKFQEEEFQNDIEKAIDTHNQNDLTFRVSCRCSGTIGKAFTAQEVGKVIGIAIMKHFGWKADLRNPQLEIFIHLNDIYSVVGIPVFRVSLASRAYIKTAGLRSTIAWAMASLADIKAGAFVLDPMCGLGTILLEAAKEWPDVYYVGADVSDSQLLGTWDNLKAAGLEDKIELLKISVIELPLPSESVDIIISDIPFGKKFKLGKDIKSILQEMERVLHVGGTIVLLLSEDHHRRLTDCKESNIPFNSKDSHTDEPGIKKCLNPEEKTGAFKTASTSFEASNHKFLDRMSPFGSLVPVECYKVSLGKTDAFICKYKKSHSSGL

Variants of: B1
Conditions: with bud23_human BUD23, O43709

Row | Variant | effect of a mutation on the interaction
1 | MKLLTHNWLSSHVRGVGSRGFPLRLQATEVRICPVEFNPNFVARMIPKVEWSAFLEAADNLRLIQVPKGPVEGYEENEEFLRTMHHLLLEVEVIEGTLQCPESGRMFPISRGIPNMLLSEEETES | with no effect
2 | MKLLTHNLLFSHVRGVGSRGFPLRLQATEVRICPVEFNPNFVARMIPKVEWSAFLEAADNLRLIQVPKGPVEGYEENEEFLRTMHHLLLEVEVIEGTLQCPESGRMFPISRGIPNMLLSEEETES | with no effect
3 | MKLLAHNLLSSHVRGVGSRGFPLRLQATEVRICPVEFNPNFVARMIPKVEWSAFLEAADNLRLIQVPKGPVEGYEENEEFLRTMHHLLLEVEVIEGTLQCPESGRMFPISRGIPNMLLSEEETES | decreasing interaction strength
4 | MKLLTHNLLSSHVRGVGSRGFPLRLQATEVRICPVEFNPNFVARMIPAVEWSAFLEAADNLRLIQVPKGPVEGYEENEEFLRTMHHLLLEVEVIEGTLQCPESGRMFPISRGIPNMLLSEEETES | with no effect
5 | MKLLTHNLLSSHVRGVGSRGFPLRLQATEVRICPVEFNPNFVARAIPKVEWSAFLEAADNLRLIQVPKGPVEGYEENEEFLRTMHHLLLEVEVIEGTLQCPESGRMFPISRGIPNMLLSEEETES | with no effect

The remaining lines, values ahead:

Row | effect of a mutation on the interaction | Variant
6 | with no effect | MKLLTHNLLSSHVRGVGSRGFPLRLQATEVRICPVEFNPNFVARMIPKVAWSAFLEAADNLRLIQVPKGPVEGYEENEEFLRTMHHLLLEVEVIEGTLQCPESGRMFPISRGIPNMLLSEEETES
7 | with no effect | MKLLTHNLLSSHVRGVGSRGFPLRLQATEVRICPVEFNPNFVARMIPKVEWSAFLEAADNLRLIQVPKGPVEGYEENEEFLRTMHHLLLEVAVIEGTLQCPESGRMFPISRGIPNMLLSEEETES
8 | with no effect | MKLLTHNLLSSHVRGVGSRGFPLRLQATEVRICPVEFNPNFVARMIPKVEWSAFLEAADNLRLIQVPKGPVEGYEENEEFLRTMHHLLLEVEVIEGTLQCPESGRMFPISRGAPNMLLSEEETES
9 | disrupting interaction strength | MKLLTHNLLSSHVRGVGSRGFPLRLQATEVRICPVEFNPNFVARMIPKVEWSAFLEAADNLRLIQVPKGPVEGYEENEEFLRTMHHLLLEVEVIEGTLQCPESGRMAPISRGIPNMLLSEEETES
10 | with no effect | MKLLTHNLLSSHVRGVGSRGFPLRLQATEVRICPVEFNPNFVARMIPAVEWSAFLEAADNLRLIQVPKGPVEGYEENEEFLRTMHHLLLEVAVIEGTLQCPESGRMFPISRGIPNMLLSEEETES

Variants of: B2
Conditions: with thum2_human THUMPD2, Q9BTF0

Row | Variant | effect of a mutation on the interaction
11 | MKLLTHNLLSSHVRGVGSRGFPLRLQATEVRICPVEFNPNFVARAIPKVEWSAFLEAADNLRLIQVPKGPVEGYEENEEFLRTMHHLLLEVEVIEGTLQCPESGRMFPISRGIPNMLLSEEETES | disrupting interaction strength
12 | MKLLAHNLLSSHVRGVGSRGFPLRLQATEVRICPVEFNPNFVARMIPKVEWSAFLEAADNLRLIQVPKGPVEGYEENEEFLRTMHHLLLEVEVIEGTLQCPESGRMFPISRGIPNMLLSEEETES | disrupting interaction strength
13 | MKLLTHNLLFSHVRGVGSRGFPLRLQATEVRICPVEFNPNFVARMIPKVEWSAFLEAADNLRLIQVPKGPVEGYEENEEFLRTMHHLLLEVEVIEGTLQCPESGRMFPISRGIPNMLLSEEETES | disrupting interaction strength
14 | MKLLTHNWLSSHVRGVGSRGFPLRLQATEVRICPVEFNPNFVARMIPKVEWSAFLEAADNLRLIQVPKGPVEGYEENEEFLRTMHHLLLEVEVIEGTLQCPESGRMFPISRGIPNMLLSEEETES | disrupting interaction strength

Now from value to variant:

Row | effect of a mutation on the interaction | Variant
15 | disrupting interaction strength | MKLLTHNLLSSHVRGVGSRGFPLRLQATEVRICPVEFNPNFVARMIPKVEWSAFLEAADNLRLIQVPKGPVEGYEENEEFLRTMHHLLLEVEVIEGTLQCPESGRMAPISRGIPNMLLSEEETES
16 | with no effect | MKLLTHNLLSSHVRGVGSRGFPLRLQATEVRICPVEFNPNFVARMIPKVAWSAFLEAADNLRLIQVPKGPVEGYEENEEFLRTMHHLLLEVEVIEGTLQCPESGRMFPISRGIPNMLLSEEETES
17 | disrupting interaction strength | MKLLTHNLLSSHVRGVGSRGFPLRLQATEVRICPVEFNPNFVARMIPAVEWSAFLEAADNLRLIQVPKGPVEGYEENEEFLRTMHHLLLEVAVIEGTLQCPESGRMFPISRGIPNMLLSEEETES
18 | disrupting interaction strength | MKLLTHNLLSSHVRGVGSRGFPLRLQATEVRICPVEFNPNFVARMIPKVEWSAFLEAADNLRLIQVPKGPVEGYEENEEFLRTMHHLLLEVAVIEGTLQCPESGRMFPISRGIPNMLLSEEETES
19 | disrupting interaction strength | MKLLTHNLLSSHVRGVGSRGFPLRLQATEVRICPVEFNPNFVARMIPAVEWSAFLEAADNLRLIQVPKGPVEGYEENEEFLRTMHHLLLEVEVIEGTLQCPESGRMFPISRGIPNMLLSEEETES
